This series deals with Escherichia coli TOP10. The series is described as follows: shrunken log2 fold change of peptide-encoding DNA abundance (4.5 h post-induction vs induction); higher = less antimicrobial activity (less host growth inhibition). The settings on record: time post-induction: 4.5 h; library: site-saturation at positions 5, 18, 19, 20.
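Note: peptides expressed intracellularly from a pBAD plasmid library in pooled LB shake-flask culture, induced with 0.3% L-arabinose, DNA abundance read by NGS, three biological replicates, DESeq2 with apeglm shrinkage.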

In the case of RRIRERPPRLPRPRPRPHRLPRP, the “shrunken log2 fold change” value is -0.18. To RRIRHRPPRLPRPRPRPDMFPRP belongs -0.0749; to RRIRPRPPRLPRPRPRPMWYPRP, -0.111. To RRIRSRPPRLPRPRPRPFNVPRP belongs -0.343. The result for RRIRGRPPRLPRPRPRPYDIPRP reads -0.068. RRIRLRPPRLPRPRPRPMNIPRP: the “shrunken log2 fold change” value is -0.504. Turning to RRIRKRPPRLPRPRPRPRDCPRP, the “shrunken log2 fold change” value was found to be 0.306. To RRIRWRPPRLPRPRPRPECWPRP belongs 1.29; to RRIRMRPPRLPRPRPRPGIVPRP, 0.332; to RRIRDRPPRLPRPRPRPVFSPRP, 0.111.

Take RRIRIRPPRLPRPRPRPNVQPRP: the “shrunken log2 fold change” value is -0.284. To RRIRTRPPRLPRPRPRPNETPRP belongs 0.0139; to RRIRPRPPRLPRPRPRPENEPRP, 0.0949; to RRIRERPPRLPRPRPRPQAMPRP, 0.00616.

As to RRIRTRPPRLPRPRPRPPHWPRP, the “shrunken log2 fold change” value turned out to be 0.333.

For RRIRGRPPRLPRPRPRPPVDPRP, the “shrunken log2 fold change” value is 0.953.

In the case of RRIRMRPPRLPRPRPRPTGHPRP, the “shrunken log2 fold change” value was 0.63. To RRIRGRPPRLPRPRPRPAYAPRP belongs 0.0503. The result for RRIRRRPPRLPRPRPRPFRMPRP reads -0.0671; that for RRIRFRPPRLPRPRPRPGGKPRP, 0.228; that for RRIRNRPPRLPRPRPRPQITPRP, -1.07. To RRIRLRPPRLPRPRPRPMIMPRP belongs -0.159; to RRIRFRPPRLPRPRPRPTEDPRP, 0.0193. For RRIRIRPPRLPRPRPRPKFFPRP, the “shrunken log2 fold change” value is -0.116.

Regarding RRIRVRPPRLPRPRPRPGREPRP, the “shrunken log2 fold change” value was -0.00937. The result for RRIRMRPPRLPRPRPRPVDTPRP reads 0.361. On to RRIRQRPPRLPRPRPRPGNIPRP, for which the “shrunken log2 fold change” value is -0.151. To RRIRIRPPRLPRPRPRPEPLPRP belongs 0.0641; to RRIRPRPPRLPRPRPRPMFDPRP, -0.231; to RRIRYRPPRLPRPRPRPKNYPRP, -1.38. To RRIRVRPPRLPRPRPRPTHNPRP belongs 0.0759. To RRIRCRPPRLPRPRPRPDYVPRP belongs -1.26; to RRIRYRPPRLPRPRPRPPRQPRP, 0.0146; to RRIRGRPPRLPRPRPRPLTVPRP, 0.48. For RRIRERPPRLPRPRPRPKTVPRP, the “shrunken log2 fold change” value is -0.0153.

For RRIRARPPRLPRPRPRPPRHPRP, the “shrunken log2 fold change” value turned out to be 0.937. The result for RRIRNRPPRLPRPRPRPYGVPRP reads -0.00804; that for RRIRCRPPRLPRPRPRPKETPRP, -0.0766; that for RRIRHRPPRLPRPRPRPHRGPRP, -0.0108. The result for RRIRKRPPRLPRPRPRPMDIPRP reads 0.0655.

Regarding RRIRMRPPRLPRPRPRPDLMPRP, the “shrunken log2 fold change” value is -0.0157. Regarding RRIRDRPPRLPRPRPRPVVEPRP, the “shrunken log2 fold change” value turned out to be 0.321. To RRIRCRPPRLPRPRPRPREKPRP belongs 1.12; to RRIRDRPPRLPRPRPRPKPLPRP, 0.101; to RRIRQRPPRLPRPRPRPCRRPRP, 0.00897.

In the case of RRIRNRPPRLPRPRPRPEWVPRP, the “shrunken log2 fold change” value was determined as 0.0314.

Regarding RRIRARPPRLPRPRPRPMVVPRP, the “shrunken log2 fold change” value is -0.0787. On to RRIRERPPRLPRPRPRPQGSPRP, for which the “shrunken log2 fold change” value is -0.107. The result for RRIRHRPPRLPRPRPRPKANPRP reads 0.174; that for RRIRIRPPRLPRPRPRPCEAPRP, -0.395; that for RRIRNRPPRLPRPRPRPFNVPRP, 0.109. The result for RRIRRRPPRLPRPRPRPITWPRP reads -0.0299; that for RRIRYRPPRLPRPRPRPAKCPRP, -0.153. To RRIRTRPPRLPRPRPRPIAVPRP belongs -0.213; to RRIRKRPPRLPRPRPRPCKKPRP, -0.0301; to RRIRQRPPRLPRPRPRPKFDPRP, -0.0817.

Consider RRIRRRPPRLPRPRPRPTAYPRP, for which the “shrunken log2 fold change” value came to 0.676. To RRIRSRPPRLPRPRPRPMTWPRP belongs -0.0238. Regarding RRIRQRPPRLPRPRPRPSFDPRP, the “shrunken log2 fold change” value was determined as 0.182.

For RRIRSRPPRLPRPRPRPYHQPRP, the “shrunken log2 fold change” value is -0.203. To RRIRLRPPRLPRPRPRPVLQPRP belongs 0.195.

On to RRIRERPPRLPRPRPRPFYMPRP, for which the “shrunken log2 fold change” value was -0.167. The result for RRIRCRPPRLPRPRPRPIMQPRP reads -0.193; that for RRIRLRPPRLPRPRPRPGREPRP, 0.231. To RRIRTRPPRLPRPRPRPMHNPRP belongs -0.503. The result for RRIRARPPRLPRPRPRPILWPRP reads 0.254; that for RRIRYRPPRLPRPRPRPNTPPRP, -0.179; that for RRIRCRPPRLPRPRPRPNPGPRP, -0.0632. In the case of RRIRPRPPRLPRPRPRPQIFPRP, the “shrunken log2 fold change” value was -0.137. To RRIRSRPPRLPRPRPRPHDMPRP belongs -0.335. For the sequence RRIRQRPPRLPRPRPRPHPDPRP, the “shrunken log2 fold change” value was -0.0624. As for RRIRGRPPRLPRPRPRPVQQPRP, the “shrunken log2 fold change” value is 0.515. The result for RRIRMRPPRLPRPRPRPQEFPRP reads 0.284; that for RRIRIRPPRLPRPRPRPGWPPRP, 0.353. To RRIRARPPRLPRPRPRPSAKPRP belongs 0.471; to RRIRVRPPRLPRPRPRPDSPPRP, 0.0663; to RRIRTRPPRLPRPRPRPPANPRP, 0.0303.

On to RRIRKRPPRLPRPRPRPRFLPRP, for which the “shrunken log2 fold change” value came to 0.101. In the case of RRIRIRPPRLPRPRPRPSMPPRP, the “shrunken log2 fold change” value was -0.339.

With RRIRRRPPRLPRPRPRPMEMPRP, the “shrunken log2 fold change” value is -0.0817. Regarding RRIRGRPPRLPRPRPRPDSNPRP, the “shrunken log2 fold change” value is -0.0604.

Regarding RRIRIRPPRLPRPRPRPWMRPRP, the “shrunken log2 fold change” value is -0.37.

RRIRVRPPRLPRPRPRPSQCPRP: the “shrunken log2 fold change” value was -0.187. The result for RRIRVRPPRLPRPRPRPNRVPRP reads 0.0523; that for RRIRLRPPRLPRPRPRPEFNPRP, -0.0571. To RRIRERPPRLPRPRPRPYCHPRP belongs -0.467; to RRIRARPPRLPRPRPRPEFAPRP, 0.727. On to RRIRERPPRLPRPRPRPWRQPRP, for which the “shrunken log2 fold change” value is -0.00951. The result for RRIRPRPPRLPRPRPRPIRFPRP reads -0.119. The result for RRIRDRPPRLPRPRPRPLIAPRP reads 0.468; that for RRIRSRPPRLPRPRPRPYPNPRP, 0.00334; that for RRIRWRPPRLPRPRPRPASGPRP, 0.461. To RRIRARPPRLPRPRPRPHQRPRP belongs 0.0964; to RRIRQRPPRLPRPRPRPERYPRP, -0.0565; to RRIRNRPPRLPRPRPRPGILPRP, -0.337. As to RRIRYRPPRLPRPRPRPYTSPRP, the “shrunken log2 fold change” value was -0.533. To RRIRQRPPRLPRPRPRPLFVPRP belongs -0.495; to RRIRWRPPRLPRPRPRPDFPPRP, -0.0386. The result for RRIRPRPPRLPRPRPRPHPAPRP reads 0.217; that for RRIRARPPRLPRPRPRPEMQPRP, 1.66. To RRIRSRPPRLPRPRPRPCYCPRP belongs -0.215. Consider RRIRFRPPRLPRPRPRPYTYPRP, for which the “shrunken log2 fold change” value was -0.141.

As for RRIRSRPPRLPRPRPRPYHNPRP, the “shrunken log2 fold change” value was -1.22.

For RRIRTRPPRLPRPRPRPWVRPRP, the “shrunken log2 fold change” value turned out to be 0.0999. To RRIRQRPPRLPRPRPRPSITPRP belongs -0.731; to RRIRVRPPRLPRPRPRPCMGPRP, -0.234. To RRIRGRPPRLPRPRPRPTSSPRP belongs 0.425; to RRIRHRPPRLPRPRPRPPVQPRP, -0.0798; to RRIRYRPPRLPRPRPRPSGAPRP, -0.299. Consider RRIRTRPPRLPRPRPRPMRGPRP, for which the “shrunken log2 fold change” value was -0.0594.

Take RRIRTRPPRLPRPRPRPKWHPRP: the “shrunken log2 fold change” value is -0.0752. In the case of RRIRGRPPRLPRPRPRPKFSPRP, the “shrunken log2 fold change” value was 0.392. The result for RRIRMRPPRLPRPRPRPKKNPRP reads 1.46; that for RRIRMRPPRLPRPRPRPWKNPRP, 0.0328; that for RRIRSRPPRLPRPRPRPYEPPRP, -0.619. To RRIRTRPPRLPRPRPRPAHIPRP belongs 0.0726; to RRIRDRPPRLPRPRPRPVKRPRP, 0.0129. For the sequence RRIRHRPPRLPRPRPRPACFPRP, the “shrunken log2 fold change” value was -0.126. To RRIRIRPPRLPRPRPRPWEPPRP belongs -0.146; to RRIRHRPPRLPRPRPRPLKDPRP, -0.361; to RRIRERPPRLPRPRPRPRDYPRP, -0.521. To RRIRYRPPRLPRPRPRPLFAPRP belongs -0.492; to RRIRTRPPRLPRPRPRPYQFPRP, 0.0636. To RRIRERPPRLPRPRPRPNWEPRP belongs 0.0232.

Consider RRIRVRPPRLPRPRPRPAQIPRP, for which the “shrunken log2 fold change” value was -0.246.

For the origin of these results see the supplement of paper PMC9112550, “Optimization of the antimicrobial peptide Bac7 by deep mutational scanning” (BMC Biology, 2022).
